Assay results published in publication PMC3681970, “Biochemical Characterization of UDP-N-acetylmuramoyl-L-alanyl-D-glutamate: meso-2,6-diaminopimelate ligase (MurE) from Verrucomicrobium spinosum DSM 4136^T” (PLoS ONE, 2013).

Key:
Test in all cases: radiometric HPLC ligase assay, Michaelis-Menten fit
Assay type in all cases: biochemical, Verrucomicrobium spinosum
[1] = substrate: CC(=O)N[C@H]1[C@@H](OP(=O)(O)OP(=O)(O)OC[C@H]2O[C@@H](n3ccc(=O)[nH]c3=O)[C@H](O)[C@@H]2O)O[C@H](CO)[C@@H](O)[C@@H]1O[C@H](C)C(=O)N[C@@H](C)C(=O)N[C@H](CCC(=O)O)C(=O)O; settings: 100 mM Tris-HCl pH 9.6, 30 mM MgCl2, 37°C, other substrates fixed (standard 5 mM ATP, 150 µM meso-A2pm), labelled compound (14C in D-Glu)
[2] = substrate: N[C@H](CCC[C@H](N)C(=O)O)C(=O)O; settings: 100 mM Tris-HCl pH 9.6, 30 mM MgCl2, 37°C, other substrates fixed (standard 5 mM ATP, 150 µM UDP-MurNAc-L-Ala-D-[14C]Glu)
[3] = substrate: Nc1ncnc2c1ncn2[C@@H]1O[C@H](COP(=O)(O)OP(=O)(O)OP(=O)(O)O)[C@@H](O)[C@H]1O; settings: 100 mM Tris-HCl pH 9.6, 30 mM MgCl2, 37°C, other substrates fixed (standard 150 µM UDP-MurNAc-L-Ala-D-[14C]Glu, 150 µM meso-A2pm)

B1: MurEVs (Verrucomicrobium spinosum) (protein)
chain: MTILRDLIEGLDKPVISGGLDVEVAGLAYDSRLVKPGFVFFALRGVKSDGHDFIPKALAEGAVAIVAETAPPEDCSVTWLHVKNARVALAEMAAAYKGHPARSMAVGGVTGTNGKTTTAFLLHHLLNHAHRRCGLLGTVVYDVGGDLKPATHTTPESLELQGLLSEMRDRGCVAVAMEVSSHAIDQHRTHGVPFAAAVFTNLSQDHLDYHGTMEEYFKAKSKLFSSTAASRSGKLVINVDDIWGRRLVDAHKEHPGLVTYGLGVAADYRAVNPRYDLTGTSFELEHKGRSLLVRIPQIGQFNVYNSLAALAAAHGMGCNLRDTVKAMQSSPQIPGRMERVTPDNHSFHVFVDYAHTPDGLVNALSTARALRPERIITVFGCGGDRDRLKRPLMARAVEEHSDISILTSDNPRTEDPQAIMDDARKGFTRSAHALIADRKEAIHTAIKGAREGDIVVIAGKGHEPYQDVQGVKHPFDDRRVARQLVDIEIRIKGEKRLEARQRRDDRQ
Protein B1 has a Km [1] of 24 ± 6 µM, a Km [2] of 17 ± 3 µM and a Km [3] of 290 ± 70 µM.
